The values that follow come from US20100285597A1, “DETECTION OF FRAGMENTS OF NECTIN-1 FOR THE DIAGNOSIS OF ALZHEIMER'S DISEASE” (UNIVERSITY OF ROCHESTER, priority 2007, published 2010).

Where a chain is given by its changes, count along the chain named. In names and notes the source's numbering stands.

Assay [1] concerns the target T1, BACE1 (Homo sapiens, UniProt P56817).
T1 construct: expressed in transfected cells; host or cells: HEK 293
In words: Co-immunoprecipitation of nectin-1 truncation mutants with BACE1 co-expressed in HEK 293 cells. Format: binding. The following applies: 48 hr. after transfection. How it is done: To define the minimal region within the ectodomain of nectin-1 required for BACE1 interaction, immunoprecipitations between the nectin-1 truncation mutants and BACE1 were performed. BACE1 and full length or truncated nectin-1 were co-expressed in HEK 293 cells and harvested 48 hr. after transfection. To confirm to the efficiencies of the co-transfections, equal volumes of cell lysate were loaded on SDS-PAGE gels and analyzed by Western blot. Transfection efficiency was similar for nectin-1 and its derivates (FIG. 10A) and BACE1 (FIG. 10B). Immunoprecipitation was performed with a nectin-1 cytoplasmic specific antibody and precipitates were analyzed on two separate 10% SDS-PAGE. Western blots were probed with anti-nectin-1 (FIG. 10C) or anti-BACE1 (FIG. 10D) antibodies. The nectin-1 antibody directly immunoprecipitated the respective nectin-1 polypeptides and processed CTFs (FIG. 10C). Furthermore, BACE1, both monomer and dimer, was immunoprecipitated by the nectin-1 antibody, confirming the association of BACE1 with nectin-1.

For assay [2], the target named is T1, BACE1. Kind of assay: Co-immunoprecipitation of nectin-1 point mutants with BACE1 co-expressed in HEK 293 cells. Format: binding. The following applies: 48 hr. after transfection. How it is done: To express how these point mutations affect the association of nectin-1 with BACE1, physical association of the mutants was examined by immunoprecipitation. We co-expressed BACE1 and nectin-1 or one of the cleavage refractory point mutants in HEK 293 cells. Cells were harvested and lysed in lysis buffer 48 hr. after transfection. To confirm the co-transfection efficiency of nectin-1 or it derivatives and BACE1, equal volumes of cell lysates were analyzed by 10% SDS-PAGE followed by Western blotting. Transfection efficiencies for nectin-1 and derivatives and BACE1 were similar in each sample (FIG. 12A—nectin-1, FIG. 12B—BACE1). Co-expression of nectin-1 with BACE1 increased the amount of CTF bands compared to nectin-1 alone (FIG. 12A, lanes 3 and 4).
Immunoprecipitation was performed using a C-terminal specific nectin-1 antibody. […] The intensities of nectin-1 CTF bands were much stronger when nectin-1 was co-expressed with BACE1. BACE1 was also detected in nectin-1 complexes (FIG. 12D).

Assay [3] relates to processing of wild type nectin-1. Kind of assay: Co-transfection of nectin-1 mutants with wild-type nectin-1 in HEK 293 cells, Western blot of CTF bands. The following applies: 0.5 μg wild-type nectin-1 plasmid, 24 hr. post-transfection. The class given is cell-based. How it is done: Mutants T310A and Y311A were tested to see if they would interfere with the processing of wild type nectin-1. HEK 293 cells were co-transfected with 0.5 μg of a plasmid containing wild-type nectin-1 and with a plasmid containing no insert (control), green fluorescent protein (GFP), nectin-1 T310A or nectin-1 Y311A. Co transfection efficiency was approximately 85%. Cells were harvested 24 hr. post-transfection and samples were analyzed on a 12% SDS-PAGE gel. […] Co-transfection with vector alone or GFP had no effect on nectin-1 processing. […] The residual CTF bands detected in the T310A and Y311A samples are likely due to the 15% of the cell population that received only the wild type nectin-1 construct.

T1 sequence (P56817 46-501, species assumed): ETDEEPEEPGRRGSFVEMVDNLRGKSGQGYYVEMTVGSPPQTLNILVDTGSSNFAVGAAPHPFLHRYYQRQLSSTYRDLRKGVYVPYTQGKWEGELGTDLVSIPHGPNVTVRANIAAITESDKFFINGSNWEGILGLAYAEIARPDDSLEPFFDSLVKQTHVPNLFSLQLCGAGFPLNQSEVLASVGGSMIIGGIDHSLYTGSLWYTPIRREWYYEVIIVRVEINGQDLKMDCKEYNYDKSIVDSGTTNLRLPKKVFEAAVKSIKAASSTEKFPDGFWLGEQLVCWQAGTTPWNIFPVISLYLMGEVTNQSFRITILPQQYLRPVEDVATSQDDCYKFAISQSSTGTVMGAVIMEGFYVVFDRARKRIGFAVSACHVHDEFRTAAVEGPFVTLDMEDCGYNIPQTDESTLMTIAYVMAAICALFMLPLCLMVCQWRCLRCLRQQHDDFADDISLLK

B1: Δ28-324: nectin-1 ectodomain truncation mutant, V5 and flag tagged (protein)
chain: QVEVNITEFPYTPSPPEHGRRAGPVPTAIIGGVAGSILLVLIVVGGIVVALRRRRHTFKGDYSTKKHVYGNGYSKAGIPQHHPPMAQNLQYPDDSDDEKKAGPLGGSSYEEEEEEEEGGGGGERKVGGPHPKYDEDAKRPYFTVDEAEARQDGYGDRTLGYQYDPEQLDLAENMVSQNDGSFISKKEWYV
modifications: left off: small tags and cut ends
notes: nectin-1 ectodomain truncation mutant, V5 and flag tagged
For the molecule B1, the “association with BACE1 (co-immunoprecipitation with nectin-1 antibody)” value (shortened to “association with BACE1”) with BACE1 [1] is listed as “Association with BACE1 was also detected”.

B2: Δ28-333: nectin-1 ectodomain truncation mutant, V5 and flag tagged (protein)
chain: PYTPSPPEHGRRAGPVPTAIIGGVAGSILLVLIVVGGIVVALRRRRHTFKGDYSTKKHVYGNGYSKAGIPQHHPPMAQNLQYPDDSDDEKKAGPLGGSSYEEEEEEEEGGGGGERKVGGPHPKYDEDAKRPYFTVDEAEARQDGYGDRTLGYQYDPEQLDLAENMVSQNDGSFISKKEWYV
modifications: left off: small tags and cut ends
notes: as for B1
B2: in the assay with BACE1 [1], the “association with BACE1” value is “Association with BACE1 was also detected”.

B3: Δ28-349: nectin-1 ectodomain truncation mutant, V5 and flag tagged (protein)
chain: PTAIIGGVAGSILLVLIVVGGIVVALRRRRHTFKGDYSTKKHVYGNGYSKAGIPQHHPPMAQNLQYPDDSDDEKKAGPLGGSSYEEEEEEEEGGGGGERKVGGPHPKYDEDAKRPYFTVDEAEARQDGYGDRTLGYQYDPEQLDLAENMVSQNDGSFISKKEWYV
modifications: left off: small tags and cut ends
notes: as for B1
Consider B3, for which, in the assay with BACE1 [1], the “association with BACE1” value is recorded as “did not associate with BACE1”.

B4: Δ28-312: nectin-1 ectodomain truncation mutant, V5 and flag tagged (protein)
chain: CEATNPIGTRSGQVEVNITEFPYTPSPPEHGRRAGPVPTAIIGGVAGSILLVLIVVGGIVVALRRRRHTFKGDYSTKKHVYGNGYSKAGIPQHHPPMAQNLQYPDDSDDEKKAGPLGGSSYEEEEEEEEGGGGGERKVGGPHPKYDEDAKRPYFTVDEAEARQDGYGDRTLGYQYDPEQLDLAENMVSQNDGSFISKKEWYV
modifications: left off: small tags and cut ends
notes: as for B1
For the molecule B4, the “association with BACE1” value with BACE1 [1] is on record as “Association with BACE1 was also detected”.

B5: Δ28-300: nectin-1 ectodomain truncation mutant, V5 and flag tagged (protein)
chain: GPINYSLAGTYICEATNPIGTRSGQVEVNITEFPYTPSPPEHGRRAGPVPTAIIGGVAGSILLVLIVVGGIVVALRRRRHTFKGDYSTKKHVYGNGYSKAGIPQHHPPMAQNLQYPDDSDDEKKAGPLGGSSYEEEEEEEEGGGGGERKVGGPHPKYDEDAKRPYFTVDEAEARQDGYGDRTLGYQYDPEQLDLAENMVSQNDGSFISKKEWYV
modifications: left off: small tags and cut ends
notes: as for B1
On to B5, for which the “association with BACE1” value with BACE1 [1] is “interacted with BACE1 very strongly”.

B6: Δ28-250: nectin-1 ectodomain truncation mutant, V5 and flag tagged (protein)
chain: FDGNWYLQRMDVKLTCKADANPPATEYHWTTLNGSLPKGVEAQNRTLFFKGPINYSLAGTYICEATNPIGTRSGQVEVNITEFPYTPSPPEHGRRAGPVPTAIIGGVAGSILLVLIVVGGIVVALRRRRHTFKGDYSTKKHVYGNGYSKAGIPQHHPPMAQNLQYPDDSDDEKKAGPLGGSSYEEEEEEEEGGGGGERKVGGPHPKYDEDAKRPYFTVDEAEARQDGYGDRTLGYQYDPEQLDLAENMVSQNDGSFISKKEWYV
modifications: left off: small tags and cut ends
notes: as for B1
For B6, the “association with BACE1” value with BACE1 [1] is listed as “interacted with BACE1 very strongly”.

B7: T310A: T310A point mutant of nectin-1 (protein, listed as Homo sapiens)
chain: MARMGLAGAAGRWWGLALGLTAFFLPGVHSQVVQVNDSMYGFIGTDVVLHCSFANPLPSVKITQVTWQKSTNGSKQNVAIYNPSMGVSVLAPYRERVEFLRPSFTDGTIRLSRLELEDEGVYICEFATFPTGNRESQLNLTVMAKPTNWIEGTQAVLRAKKGQDDKVLVATCTSANGKPPSVVSWETRLKGEAEYQEIRNPNGTVTVISRYRLVPSREAHQQSLACIVNYHMDRFKESLTLNVQYEPEVTIEGFDGNWYLQRMDVKLTCKADANPPATEYHWTTLNGSLPKGVEAQNRTLFFKGPINYSLAGAYICEATNPIGTRSGQVEVNITEFPYTPSPPEHGRRAGPVPTAIIGGVAGSILLVLIVVGGIVVALRRRRHTFKGDYSTKKHVYGNGYSKAGIPQHHPPMAQNLQYPDDSDDEKKAGPLGGSSYEEEEEEEEGGGGGERKVGGPHPKYDEDAKRPYFTVDEAEARQDGYGDRTLGYQYDPEQLDLAENMVSQNDGSFISKKEWYV
Turning to B7, in the assay with BACE1 [2], the “intensity of BACE1 bands co-precipitated, compared with wild type nectin-1” value is “much greater than that precipitated by wild type nectin-1”. Moreover, the “production of CTF bands of co-transfected wild type nectin-1” value in assay [3] is listed as “substantially reduced”.

B8: Y311A: Y311A point mutant of nectin-1 (protein, listed as Homo sapiens)
chain: B7 chain with A313T, Y314A
On to B8, for which, in the assay with BACE1 [2], the “intensity of BACE1 bands co-precipitated, compared with wild type nectin-1” value is “much greater than that precipitated by wild type nectin-1”. For the same molecule, the “production of CTF bands of co-transfected wild type nectin-1” value in assay [3] is recorded as “substantially reduced”.
